The test system of this data set is human SAH hydrolase. Kind of data set: SAH hydrolase activity assay, hydrolytic direction (kinetic constants for SAH). In kind it is biochemical. To be noted: substrate SAH; wild type vs mutant SAH hydrolase. As for the experimental part:
The cell-free extracts from colonies that inducibly overexpressed mutant SAH hydrolase proteins were chromatographed on a monoQ column (HR5/5) equipped with FPLC system. Proteins were eluted with a linear gradient of NaCl from 0 to 1 M in 10 mM sodium phosphate buffer, pH 7.0 over 35 min. The major protein peak that eluted at the same or close retention time as that of the wild type SAH hydrolase was collected. An aliquot collected mutant SAH hydrolase (1-10 μg) was incubated with [^3H]SAH (10 mCi/mmole, 200 μM) and 30 μM of 5, 5′-dithiobis (2-nitrobenzoic acid) (DTNB) at room temperature for 5-30 min.
The reaction solution was filtered through a membrane of molecular weight cut-off at 30,000 by centrifugation. The filtrate was measured at 412 nm for Hcy formation (enzyme activity) and the [^3H] radioactivity on the membrane was measured by scintillation counting after membrane washing with 1 ml of 50 mM phosphate buffer, pH 7.0.
The mutant hydrolases that show high radioactivity on the membrane and low O.D. at 412 nm of the filtrate relative to the wild type enzyme were selected as candidates for further characterization including determination of Km or Kd and binding energy (ΔG).
The assay of SAH hydrolase activity in the hydrolytic direction was performed as described in Yuan et al., J. Biol Chem., 271:28008-28016, 1996). The assay measures the hydrolysis of SAH into Ado and Hcy. The reaction product Hcy was derivatized by thiol specific reagent DTNB for colometric determination at 412 nm. The assay for SAH hydrolase in the synthetic direction was measured by the formation of SAH from substrate Ado and Hcy using HPLC (see, Yuan et al., J. Biol. Chem., 268:17030-17037 (1993). One unit of the enzyme activity was defined as the amount of enzyme that can hydrolyze or synthesize 1 μmole of SAH/min/mg.

B1: wild type: wild type human placental SAH hydrolase (SEQ ID No. 1), recombinant from E. coli (protein, listed as Homo sapiens)
chain: MSDKLPYKVADIGLAAWGRKALDIAENEMPGLMRMRERYSASKPLKGARIAGCLHMTVETAVLIETLVTLGAEVQWSSCNIFSTQNHAAAAIAKAGIPVYAWKGETDEEYLWCIEQTLYFKDGPLNMILDDGGDLTNLIHTKYPQLLPGIRGISEETTTGVHNLYKMMANGILKVPAINVNDSVTKSKFDNLYGCRESLIDGIKRATDVMIAGKVAVVAGYGDVGKGCAQALRGFGARVIITEIDPINALQAAMEGYEVTTMDEACQEGNIFVTTTGCIDIILGRHFEQMKDDAIVCNIGHFDVEIDVKWLNENAVEKVNIKPQVDRYRLKNGRRIILLAEGRLVNLGCAMGHPSFVMSNSFTNQVMAQIELWTHPDKYPVGVHFLPKKLDEAVAEAHLGKLNVKLTKLTEKQAQYLGMSCDGPFKPDHYRY
modifications: Human S-adenosylhomocysteine hydrolase protein sequence
What is called Km is the concentration of substrate that gives half-maximal velocity. For the molecule B1, the “Kcat (SAH)” value is given as 3.8 S^−1 and the Km is 7.9 µM.

B2: F302S: mutant human SAH hydrolase, Phe302 to Ser; substrate trapping enzyme (protein, UniProt P23526 2-432, looked up, variant F302S)
Adenosylhomocysteinase: SDKLPYKVADIGLAAWGRKALDIAENEMPGLMRMRERYSASKPLKGARIAGCLHMTVETAVLIETLVTLGAEVQWSSCNIFSTQDHAAAAIAKAGIPVYAWKGETDEEYLWCIEQTLYFKDGPLNMILDDGGDLTNLIHTKYPQLLPGIRGISEETTTGVHNLYKMMANGILKVPAINVNDSVTKSKFDNLYGCRESLIDGIKRATDVMIAGKVAVVAGYGDVGKGCAQALRGFGARVIITEIDPINALQAAMEGYEVTTMDEACQEGNIFVTTTGCIDIILGRHFEQMKDDAIVCNIGHSDVEIDVKWLNENAVEKVNIKPQVDRYRLKNGRRIILLAEGRLVNLGCAMGHPSFVMSNSFTNQVMAQIELWTHPDKYPVGVHFLPKKLDEAVAEAHLGKLNVKLTKLTEKQAQYLGMSCDGPFKPDHYRY
Regarding B2, the “Kcat (SAH)” value is given as 0.1 S^−1 and the Km turned out to be 1 µM.

The values are drawn from patent publication US6376210B1, “Methods and compositions for assaying analytes” (General Atomics, priority 1999, dated 2002).
